From patent publication US20230192842A1 (published 2023)
Positions count from the first letter of the chain named.

How the values were obtained:
[1] = target: human CLDN3 F34A mutant on RKO KO cells (human) (UniProt O15551); test: flow cytometry, % 906-mAb-PE positive of live cells
[2] = target: human CLDN3 I39A mutant on RKO KO cells (human) (UniProt O15551); test: as above
[3] = target: human CLDN3 I45A mutant on RKO KO cells (human) (UniProt O15551); test: as above
[4] = target: human CLDN3 K156A mutant on RKO KO cells (human) (UniProt O15551); test: as above
Chain of human CLDN3 K156A mutant on RKO KO cells (human) (O15551 whole entry K156A): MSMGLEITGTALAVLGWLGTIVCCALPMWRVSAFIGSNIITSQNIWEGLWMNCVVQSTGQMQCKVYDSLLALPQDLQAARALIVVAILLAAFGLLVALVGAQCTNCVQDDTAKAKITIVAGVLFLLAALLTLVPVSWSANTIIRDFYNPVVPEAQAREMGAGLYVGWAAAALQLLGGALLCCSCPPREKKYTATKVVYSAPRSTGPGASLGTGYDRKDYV

[5] = target: human CLDN3 N148A mutant on RKO KO cells (human) (UniProt O15551); test: as above
Chain of human CLDN3 N148A mutant on RKO KO cells (human) (O15551 whole entry N148A): as the sequence (O15551 whole entry K156A) above, with N148A, A156K counted along it

[6] = target: human CLDN3 P149A mutant on RKO KO cells (human) (UniProt O15551); test: as above
Chain of human CLDN3 P149A mutant on RKO KO cells (human) (O15551 whole entry P149A): as the sequence (O15551 whole entry K156A) above, with P149A, A156K counted along it

[7] = target: human CLDN3 P152A mutant on RKO KO cells (human) (UniProt O15551); test: as above
Chain of human CLDN3 P152A mutant on RKO KO cells (human) (O15551 whole entry P152A): as the sequence (O15551 whole entry K156A) above, with P152A, A156K counted along it

[8] = target: human CLDN3 Q155A mutant on RKO KO cells (human) (UniProt O15551); test: as above
Chain of human CLDN3 Q155A mutant on RKO KO cells (human) (O15551 whole entry Q155A): as the sequence (O15551 whole entry K156A) above, with Q155A, A156K counted along it

[9] = target: human CLDN3 Q43A mutant on RKO KO cells (human) (UniProt O15551); test: as above
Chain of human CLDN3 Q43A mutant on RKO KO cells (human) (O15551 whole entry Q43A): as the sequence (O15551 whole entry K156A) above, with Q43A, A156K counted along it

[10] = target: human CLDN3 R157A mutant on RKO KO cells (human) (UniProt O15551); test: as above
Chain of human CLDN3 R157A mutant on RKO KO cells (human) (O15551 whole entry R157A): as the sequence (O15551 whole entry K156A) above, with A156K, R157A counted along it

[11] = target: human CLDN3 S42A mutant on RKO KO cells (human) (UniProt O15551); test: as above
Chain of human CLDN3 S42A mutant on RKO KO cells (human) (O15551 whole entry S42A): as the sequence (O15551 whole entry K156A) above, with S42A, A156K counted along it

[12] = target: human CLDN3 V150A mutant on RKO KO cells (human) (UniProt O15551); test: as above
Chain of human CLDN3 V150A mutant on RKO KO cells (human) (O15551 whole entry V150A): as the sequence (O15551 whole entry K156A) above, with V150A, A156K counted along it

[13] = target: T1, human CLDN3 E153A mutant on RKO KO cells (human, UniProt O15551 1-220); test: as above
T1 construct: Single-point alanine mutant, monoclonal RKO KO line with GFP
T1 chain: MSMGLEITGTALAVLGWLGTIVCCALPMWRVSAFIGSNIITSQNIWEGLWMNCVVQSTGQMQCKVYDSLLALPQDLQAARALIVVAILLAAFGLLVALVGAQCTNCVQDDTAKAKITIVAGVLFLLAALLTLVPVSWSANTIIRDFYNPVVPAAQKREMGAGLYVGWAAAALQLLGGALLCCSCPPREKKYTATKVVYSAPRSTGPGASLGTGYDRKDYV
Protocol: (§1) Flow cytometry. RKO KO target cells were seeded for flow cytometry as described in previous sections. Wells were topped up with flow buffer (PBS+2% FBS+2 mM EDTA+0.05% sodium azide) and plates were centrifuged at 300×g for 5 minutes. Supernatant was flicked off, cells were resuspended in 150 uL flow buffer. Plate was centrifuged at 300×g for 5 minutes. Supernatant was flicked off and cells were resuspended in 50 uL IgG block at 1:100 for 10 minutes at RT. Following incubation, plate was washed twice as above. Cells were resuspended in 50 uL of diluted antibodies (all a 1 in 300 dilution) in flow buffer, or flow buffer alone (unstained control). Cells were incubated for 30 minutes at RT. After incubation, plates were washed twice with 150 uL flow buffer. […]
(§2) Data Analysis: Flow Cytometry. Flow cytometry data was analysed using FLOWJO and further analysed in Microsoft excel and RStudio. […] Statistics for % PE-positive cells (as % of live cells) and Median Fluorescence Intensity (MFI) were calculated in FLOWJO and exported to Microsoft Excel for further analysis. […] Briefly, MFI was log 10 transformed and a mixed model was used with a fixed effect for cell line and a random effect for Plate, whilst % Parent was analysed on a linear scale in a mixed model with a fixed effect for cell line and a random effect for plate.

[14] = target: T2, human CLDN3 N38A mutant on RKO KO cells (human, UniProt O15551 1-220); test: as above
T2 construct: Single-point alanine mutant, monoclonal RKO KO line with GFP
T2 chain: T1 chain with N38A, A153E
Protocol: as §1, §2

[15] = target: human CLDN3 R157A mutant on RKO KO cells (human) (UniProt O15551); test: flow cytometry, 906-mAb-PE on RKO KO cells expressing the mutant
[16] = target: human CLDN3 V150A mutant on RKO KO cells (human) (UniProt O15551); test: as above
[17] = target: T1, human CLDN3 E153A mutant on RKO KO cells; test: as above
Protocol: (§3) Flow cytometry. RKO KO target cells were seeded for flow cytometry as described in previous sections. Wells were topped up with flow buffer (PBS+2% FBS+2 mM EDTA+0.05% sodium azide) and plates were centrifuged at 300×g for 5 minutes. Supernatant was flicked off, cells were resuspended in 150 uL flow buffer. Plate was centrifuged at 300×g for 5 minutes. Supernatant was flicked off and cells were resuspended in 50 uL IgG block at 1:100 for 10 minutes at RT. Following incubation, plate was washed twice as above. Cells were resuspended in 50 uL of diluted antibodies (all a 1 in 300 dilution) in flow buffer, or flow buffer alone (unstained control). Cells were incubated for 30 minutes at RT. After incubation, plates were washed twice with 150 uL flow buffer. Cells were then resuspended in 100 uL flow buffer containing DAPI at a 1:200 concentration as a live/dead stain. Cells were run immediately on the CYTOFLEXS. Cells were acquired on fast flow rate, with a stopping condition of 10,000 live cells (based on Total>Singlets>Live).
(§4) Cell lines for analysis included RKO KO, a CLDN3 knockout (included as a negative control), RKO KO CLDN3 mutant cells (with various single-amino acid CLDN3 mutations) and RKO KO CLDN3 WT cells (positive control). RKO KO CLDN3 mutant cell lines were selected and generated as outlined in previous sections.

[18] = target: T2, human CLDN3 N38A mutant on RKO KO cells; test: as above
Protocol: as §3, §4

[19] = target: T1, human CLDN3 E153A mutant on RKO KO cells; test: as above
Protocol: as §1, §2

[20] = target: T2, human CLDN3 N38A mutant on RKO KO cells; test: as above
Protocol: as §1, §2

Chain of human CLDN3 F34A mutant on RKO KO cells (human) (O15551 whole entry F34A): as the sequence (O15551 whole entry K156A) above, with F34A, A156K counted along it
Chain of human CLDN3 I45A mutant on RKO KO cells (human) (O15551 whole entry I45A): as the sequence (O15551 whole entry K156A) above, with I45A, A156K counted along it
Chain of human CLDN3 I39A mutant on RKO KO cells (human) (O15551 whole entry I39A): as the sequence (O15551 whole entry K156A) above, with I39A, A156K counted along it

Change in % Parent (906-mAb-PE positive cells) vs CLDN3 WT [1]: -0.95%
Change in % Parent (906-mAb-PE positive cells) vs CLDN3 WT [2]: 0.1%
Change in % Parent (906-mAb-PE positive cells) vs CLDN3 WT [3]: 0.05%
Change in % Parent (906-mAb-PE positive cells) vs CLDN3 WT [4]: 0.05%
Change in % Parent (906-mAb-PE positive cells) vs CLDN3 WT [5]: 0.1%
Change in % Parent (906-mAb-PE positive cells) vs CLDN3 WT [6]: 0.1%
Change in % Parent (906-mAb-PE positive cells) vs CLDN3 WT [7]: 0.1%
Change in % Parent (906-mAb-PE positive cells) vs CLDN3 WT [8]: 0.1%
Change in % Parent (906-mAb-PE positive cells) vs CLDN3 WT [9]: 0.1%
Change in % Parent (906-mAb-PE positive cells) vs CLDN3 WT [10]: 0.1%
Change in % Parent (906-mAb-PE positive cells) vs CLDN3 WT [11]: 0.1%
Change in % Parent (906-mAb-PE positive cells) vs CLDN3 WT [12]: 0%
Change in % Parent (906-mAb-PE positive cells) vs CLDN3 WT [13]: -94.5%
Change in % Parent (906-mAb-PE positive cells) vs CLDN3 WT [14]: -99.2%
fold change MFI vs CLDN3 WT (fold vs CLDN3 WT) [15]: 1.31
fold change MFI vs CLDN3 WT (fold vs CLDN3 WT) [16]: 2.98
binding result [17]: no binding
binding result [18]: no binding
fold change MFI vs CLDN3 WT [19]: 0.01 fold vs CLDN3 WT
fold change MFI vs CLDN3 WT [20]: 0.01 fold vs CLDN3 WT
B1: 906-mAb (anti-CLDN3 906-mAb, monoclonal antibody version of the scFv of 906-009_LNGFR) (antibody, V domains shown)
VH: QVQLVQSGAEVKKPGSSVKVSCKASGYTFTNYWVHWVRQAPGQGLEWMGRIEPNSSGSQYNEKFKNRVTITADKSTSTAYMELSSLRSEDTAVYYCARGVMVPLDYWGQGTLVTVSS
VL: DIQMTQSPSSLSASVGDRVTITCKASQDINRYIAWYQQKPGKAPKLLIHYTSTLQPGVPSRFSGSGSGTDFTLTISSLQPEDFATYYCLQYETLYSFGQGTKLEIK
